Source: the nanobody polyreactivity screen of Harvey et al. (2022)

Test: yeast display, Sf9 membrane polyspecificity reagent, FACS + sequencing; frameworks hold sequencing errors
Method in brief: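 Galactose-induced (36–48 hours) yeast carrying a synthetic nanobody display library were exposed to 10% biotinylated, detergent-solubilized Sf9 membrane reagent at 4 °C for 1 hour. FACS followed streptavidin microbead enrichment, using low and high (top ~1%) gates for expression (anti-HA) and reagent binding (streptavidin). Colony PCR, MiSeq 2 × 250 sequencing and CDR-length filtering followed. Labels for polyreactivity reflect the gate of origin.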

Row | Sequence | polyreactivity (PSR sort gate)
1 | QVQLVESGGGLVQAGGSLRLSCAASGSIFAAYAMGWYRQAPGKERELVAVINSRGGITSYADSVKGRFTISRDNAKNTVYLQMNSLKPEDTAVYYFAARTWYSWRYDYWGQGTQVTVSS | high polyreactivity
2 | QVQLVESGGGLVQAGGSLRLSCAASGSPFGYYAMGWYRQATGKERELVAAITRSGGRTYYADSVKGRFTISRDNAKNTVYLQMNSLKPEDTAVYYCAADRVRRPSPGGMDFWGQGTQVTVSS | high polyreactivity
3 | QDQLVESGGGLVQAGGSLRLSCAASGSTFPDYAMGRYRQAPGKERELFAAISSGGSTNYADSVKGRFTISRDNAKNTVYLQMNSLKPEDTAVYYCAADVGAIYDKAVNGYWGQGTQVTVSS | low polyreactivity
4 | QVQLVESGGGLVQAGGSRRLSCAASGSIFVKYAMGWYRQAPGKERELVAAKSQSGVRTYYADSVKGRFTISRDNAKNTVYLQMNSLTPEDTAVYYCAAYSGYYYWGQGTQVTVSS | high polyreactivity
5 | QVQLVESGGGLVQAGGSLRLSCAASGFTFKFNAMGWYRQAPGKEREFVAAISYSGGSTYYADSVKGRFTISRDNAKNTVYLQMNSVKPEDTAVYYCAARAYWYGASYYYWGQGTQVTVSS | high polyreactivity
6 | QVQLVESGGGLVQAGGSLRLSCAASGSIFISNAMGWYRQAPGTERELVAAISRSGARTYYADSVKGRFTISRDNAKNTVYLQMNSLKPEDTAVYYCAVVGYSPYKYDYWGQGTQVTVSS | high polyreactivity
7 | QVQLVESGGGLVQAGGSLRLSCAASGRIFYPYAMGWYRPAPGKERELVAAITVRGGRTYYADSVKWRFTISRDNAKNTVYLQMNSLKPEDTAVYYCNAVIGWYIGSRTYPHGPLQYDYWGQGTQVTLSS | high polyreactivity
8 | QVQLVESGGGLVQAGGSLGLSCAASGRTFSQYAMGWYRQAPGKERELVAAISWSGGYTYYADSVKGRFTISRDNAKNTVYLQMNSLKPEDTAVYYCAAVGKGSARSSYPVLYDYWGQGTQVTVSS | low polyreactivity
9 | QFQLEESVGGLVQAGGSLRLSCAASGFTFKSYAMGWYRQATVNVREFVARITYSGGGTYYADSVKGRFTISRDNAKNTVYLLMNSLKPEDTAVYYCARPFNRYLGLTRNGYTSDYWGQGTQVTVSS | high polyreactivity
10 | QVQLVESGVGLVQAVGSLRLSCAASGSILITNAMGWYRQAPGKERELVAAISSGGSTYYADSVKGRFTISRDNAKNTVYLQMNSLKPEDTAVYYFAADQLKVGREYVEYDYWGQGTQVTVSS | low polyreactivity
11 | QVQLVESGGGLVQAGGSLRLSCAASGFIFLHYAMGWYRQAPGKERELVAAISSSGGRTYYADSVKGRFSISRDNAKNTVYLQMNSLKPEDTAVYYCAAEAYPWYVPYDYWGQGTQVTVSS | high polyreactivity
12 | QVQLVESAGGLVQAGGSLRLSCAASGFTFDYYAMGWYRQAPGKERELVASITFIGGNTNYADSVKGRFTISRDNAKTTVYLQMNSLKPEDTAVYYCAADFPWDYRYWFEYWGQGTQVTVSS | low polyreactivity
13 | QVQLVESGGGLVQAGGSLRLSCAASGRTFLVNAMGWYRQAPGKERELVAAISQRGGSTDYADSVKGRFTISRDNAKNTVYLQMNSLKPEDTAVYYCAVRWGYLYDYWGQGTQVTVSS | low polyreactivity
14 | QVQLVESGGGLVQAGGSLRLSCAASGRIFVYYVMGWYRQAPGKERELVASITFRGSRTYYADSVKGRFTISRDNAKNTVYLQMNSLKPEDTAVDYCNADVWASGSRGEGYWGQGTQVTVSS | low polyreactivity
15 | QVQLVESGGGLVQAGGSLRLSCAASGRIFPYYAMGWYRQAPGKERELVATISSGGRTNYADSVKGRFTMSRDNAKNTVYVQMNSLKPEDTAVYYCAADYRTPTDVEYDYWGQGTQVTVSS | high polyreactivity
16 | QVQLVESGGGLVQAGASLRLSCAASVIIFKIYAMGWYRQAPGKERELVAAITRSGTRTYYADSVKGRFTISRDNAKNTVYLQMNSLKPEDTAVYYCNAYTTLAYDLDYWGQGTQVTVSS | high polyreactivity
17 | QVQLVESGGGLVQAGGSLRLSCAASGSIFPYYAMGWYRQAPGKERELVAAITGAGSTNYADSVKGRFTISRDNAKNTVYLQRNSLKPEDTAVYYCAADFGSPDKWRDWYDYWGQGTQVTVSS | low polyreactivity
18 | QVQLVESGGGLVQAGGSLRLSCAASGRTFNYYAMGWYRQAPGKERELVAAISWSGTPTYYADSVKGRFTISRDNAKNTVYLQMNSLKPEDTAVYYCAAYLVSYPRGNYIRYDYWGQGTQVTVSS | low polyreactivity
19 | QVQLVESGGGLVQAGGSLRLSCAASGSTFYIYAMGWYRQAPGKEREFVAAIDLSGSSTYADSVKGRFTISRDNAKNTVYLQMKSLKPEDTAVYYCAAYQIYQYDGPYDYWGQGTQVTVSS | low polyreactivity
20 | QVQLVESGGGLVQAGGSLRLSCAATGRIFGQNAMGWYRQAPGKERELVAAINWSVGSTYYADSVKGRFTISRDNAKNTVYLQMNSLKPEDTGVYYCAAGNLYYAEYDYWGQGTQVTVSS | low polyreactivity
21 | QVQLQESGGGLVQAGGSLCLSCAASGTIFFDGDMGWYRQAPCKEREFVAAINPGGSAYYADSVKGRLPLAAITHTVYLQMNSLKPEDTAVYYCAAKLFDVYGYYYWGQGTHVTVSS | low polyreactivity
22 | QVQHVESGGGLVQAGGSLRLSCAASGRTFQYNTMGWYRQAPGKERELVAAISWGGGSTYYADSVKGRFTISRDNAKNTVYLQMNSLKPEDTAVYYCAATHYRGKGYYYWGQGTQLTVSS | low polyreactivity

Row | Sequence | polyreactivity (PSR sort gate)
23 | QFQLVESGGGLVQAGGSLRLSCAASGRIFYGYAMVWYRQAPGKERDLVAAISWRGGRTYYADSVKGRFTISRDNAKNTVYLQMNSLKPEDTAVYYCNKVFPPQGQLRNMYYWGQGTQVTVSS | high polyreactivity
24 | QVQLVESGGGLVQAGGSLRLSCAASGLIFPGYDMGWYRAAPGKVRELVAAISDSGANTYYADSVKVRFTISRDNAKNTVYLQMNSLKPEDTAVYYCAADSSWGYGTYFGRFDYWGQGTQVTVSS | low polyreactivity
25 | QVQLVESGGGLVQAGGSLRLSCAASGRIFGRYAMGWYRQAPGNERELVAAISRRGSRTYYADSVKGRFTISRDNAKNTVYLQMNSLKPEDTAVYYCNALTGSFKTYSFDYWGQGTQVTVSS | high polyreactivity
26 | QVQLVESGGGLVQAGGSLRLSCAASGRTIPIYAMGWYRQEPGKERYLVAAITYSGGSTYYADSVKGRFTISRDNAKNSVYLQMNSLKPEDTAVYYCAVDGTKPYWHQRYVYWGQGTQVTVSS | low polyreactivity
27 | QVQLVESCGGLVQAGGSLRLSCAASGSTFSSYAMGWYSQAPGKERELVAAISSSGGTSTYADSVKGPFTISRDNAKNTVYLQMNSLKPEDTAVYYCNTDRFRRLYDYWGQGTQVTVSS | high polyreactivity
28 | QVQLVESGGGLVQAGGSLRLICAASGFAFSYYAMGWYRQAPGKEREFVASIDWSGGSTYYADSVKGRFTISRDNEKNTVYLQMNSLKPEDTAVYYCAAELDYFPGYDYWGQGTQVTVSS | low polyreactivity
29 | QVQLVESGGGLVQAGGSLRLSCAASGTIFYGNAMGWYRQAPGKEREYVAAITYSGGSTYYADSVKGRFSISRDNAKNTVYLQMNSLKPEDTAVYYCAKAYYPKGRYGFDYWGQGTQVTVSS | high polyreactivity
30 | QVQLVESGGGLVQAGGSLRLSCDASGRTFVVNAMGWYRQAPGKERELVAAITRRGGITYYADSVKGRFTISRDNAKNTVYLQMNSLKPEDTAVYYCAADRSYYPDTRTTYGYNYWGQGTQVTVSS | low polyreactivity
31 | QVQLVESGGGLVQAGGSLRLSCAASGNIFAIYARGWYRQAPGKEREFVAAIDWSVASTYYADSVKGRFTISRDNEKNTVYLQMNSLTPEDTAVYSSAAELYGLKYGYYLSYDYWGQGTQVTVSS | high polyreactivity
32 | QVQLVESGGGLVQAGGSLRLSCAASGSTFGYNAMGWDRQAPGKERELVAAITGNDGTTYYADSVKGRFTISRDNAKNSVYLQMNSLKPEDSAVYYCAARPYLGYIGYEYWGQGTQVTVSS | low polyreactivity
33 | QVQLVESGGGLVQAGGSLRLSCAASGRTIWRYAMGWYRKAPGKERELVAAISWSGTSTYYADSVKGRFTISRDNAKNTVYLQMNSLKPEDTAVYYCAVAYPFYGKTLFSPQADYNYWGQGTQVTVSS | high polyreactivity
34 | QDQLVESGGGLVQAGGSLRLSCAASGRILRQYAMGWYRQAPGKERELVAAITSGDSTYYADSVKGRFTISRDNAKNTVYLQMNSLKTEDTAVYYCAAYSWLYEGYEYWGQGTQVTVSS | high polyreactivity
35 | QVQLVESGGGIVQAGGSLRLSCAASGRLFYYYAMGWDRQAPGTERELVAVISRGVITYYADSVKGRFTISRDTAKNTVYLQMNSLKPEDTAVYYCAVSYPHYIYSYGYWGQGTQVTVSS | high polyreactivity
36 | QVQLVESGGGLVQAGGSLRLSCAASGLIFFINDMGWYRQAPGKERELVAAITSGGSTYYADSVKGRFTISRDNAKNTVYLQMNSLKPEDTAVYYCAADSYDWYDYWGQGTQVTVSS | high polyreactivity
37 | QDQLVESGGGLFQAGGSLRLSCAASGSIFGHYAMGWYRQAPGKERELVAAISWRGGSTYYADSVKGRFTISRDNAKNTVYIQMNSLKPEDTAVYYCAADRWDKAYDYWGQVTQVTVSS | low polyreactivity
38 | QVQLVESGGGLVQAGGSLRLSCAASGSTFGGYAMGWYRQAPRKERELVAAISQSGTRTFYADSVKGRFSISRDNAKNTVYLQMKSLKPEDSAVYYCAAVRSYRRALLTLDYWGLGTQVTVSS | high polyreactivity
39 | QVQLVESGGGLVQAGGSLRLSCAASGSIFNYNAMGWYRQAPGKERELVAAITWSGGTTYYADSVKGRFTISRDNAKNTVYLQMNSLIPEDTAVYYCAAEWWDGSYPLYEYYYWGQGTQVNVSS | high polyreactivity
40 | QVQLVESGGGLVQAGGSLRLSCAASGFIFKSNAMGWYRQAPGKERELVAAITRSGGRTYYADSVKGRFTISRDNAKNTVYLQMNSLKPEDTAVYYCNAKLYTGSFDYWGQGTQVTVSS | high polyreactivity
41 | QLQLVESGGGLVQAGGSLRLSCAPSGLTFGRYAMGGYRHAPGKERELVAAITARVGRTYYADSVKGRFTISRDNEKNTVYLQMNSLKPEDTAVYYCAAGPSYFWYSHEKYDYWGQGTQVTVSS | high polyreactivity
42 | QVQLVESGGGLVQAGGSLRLSCSASGYIFSKYGMGWYRQAPGKEREFVAAISIRGGNTYYADSVKGRFTISRDNAKNTVYLQMTSLKPEDTAVYYCNALSYGRYLNYRGGMDYWGQGTQVTVSS | high polyreactivity
43 | QVQLVESGGGLVQAGGILRLTSAGSGFNYYPYDMGWSRQAPGKERELVAAITQSGGSTYYADSVKGRFTISRDNAKITVYLQMISLKPEDTAVYSCNADTRGEYTYVSWYDYWGQGSQVTVSS | low polyreactivity
